Source: patent US6846636B1, “Methods and compositions for HDL holoparticle uptake receptor” (American National Red Cross, priority 1998, dated 2005)
“Also recorded” adds a separate entry of the source.

Tests used:
[1] = test system: RA/Bt2cAMP-treated F9 cells; assay: DiI-HDL uptake by fluorescence-activated cell (FAC) scanning; assay type: cell-based, mouse; details: DiI-HDL 1 μg/ml, 37° C.; competitors preincubated; apolipoproteins and RAP 1 μM, apoE 0.25 μM, heparin 80 μM, IgGs 200 μg/ml, heparinase I 10 U/ml
Experimental: Untreated and RA/Bt2cAMP-treated F9 cells (1-1.5×10^5 cells/cm^2) were grown for 18 hours in serum-free medium (DMEM, ITS, penicillin, and streptomycin). After washing the cell layers with the same serum-free medium, apoE-free DiI-HDL was added to a final concentration of 1 μg/ml and incubated for 1-2 hours at 37° C., 5% CO2. For competition experiments, competitors were added in serum-free medium and incubated for 0.5 hours at 37° C., 5% CO2 prior to the addition of the DiI-HDL. After the incubation, the medium was removed, cell layers washed with serum-free medium and the cells released with a 0.5 mg/ml trypsin-0.53 mM EDTA solution (Mediatech). The cells were then pelleted by centrifugation at 180×g and resuspended in DMEM. Twice more, the cells were pelleted by centrifugation at 180×g, and resuspended in dPBS. The cells were then subjected to FAC sorting on a FACStarplus instrument (Becton Dickinson, San Jose, Calif.).
RA/Bt2cAMP-treated and -untreated F9 cells (1-1.5×10^5 cclls/cm^2) were grown for 18 h in SFM. After washing the cell layers with SFM, DiI-HDL or DIO-LDL was added to a final concentration of 1 μg/ml and incubated for 2 h at 37° C., 5% CO2. For competition experiments, competitors (HDL, HDL2, HDL3 and their corresponding apoE-free forms), LDL, oxidized LDL, VLDL, §-VLDL, Lp(a) ([…]), apoA-I (28.3 μg/ml, 1 μM), apoA-II (I 7.3 μg/ml, 1 μM), apoC-I (6.6 μg/ml, 1 μM), apoC-III (8.8 μg/ml, 1 μM), apoJ (70 μg/ml, 1 μM), ovalbumin (45 μg/ml, 1 μM), RAP (39 μg/ml, 1 μM), apoE (8.5 μg/ml, 0.25 μM), heparin (80 μM, 250 U/ml) or IgGs (200 μg/ml) were added in SFM and incubated for 45 min at 37° C., 5% CO2 prior to the addition of the fluorescent lipoproteins. After the incubation, the medium was removed, cell layers were washed with SFM and the cells were released with trypsin-EDTA-proteinase K. The cells were washed once with DMEM, twice with dPBS, then subjected to FAC scanning on a FACStar Plus instrument (Becton Dickinson, San Jose, Calif.). Plotted data are from gated cells having fluorescence intensity values greater than the autofluorescence values of 99% of unlabeled cells. For some experiments, cell layers were treated with hepaninase I (10 U/ml) for 2 h prior to the addition of the DiI-HDL.

[2] = test system: RA/Bt2cAMP-treated F9 cells; assay: DiI-HDL uptake by laser scanning confocal fluorescence microscopy; assay type: cell-based, mouse; details: DiI-HDL 1 μg/ml, 2-4 h at 37° C., LDL 40 μg/ml, RAP 1 μM
Experimental: Cells were plated into gelatin-coated wells of 8-well plastic chamber slides (Nalge Nunc, Naperville, Ill.) (4×10^4 cells/cm^2) and incubated at 37° C., 5% CO2 for 2 hours. The cells were washed with serum-free DMEM and incubated in serum-free DMEM containing ITS (insulin 5 μg/ml, transferrin 5 μg/ml, sodium selenite 5 ng/ml, Boehringer Mannheim, Germany), penicillin, and streptomycin for 18 hours at 37° C., 5% CO2. Prior to addition of DiI-HDL, the cells were incubated with serum-free DMEM containing unlabeled HDL3 (40 μg/ml) or RAP (1 μM) for 0.5 hour at 37° C., 5% CO2. DiI-HDL (1 μg/ml) in serum-free DMEM or in serum-free DMEM containing unlabeled HDL3 (40 μg/ml) or RAP (1 μM) was then incubated with the cells for 2-4 hours at 37° C., 5% CO2. The cells were washed three times with Dulbecco's phosphate buffered saline (dPBS), fixed in 3% formaldehyde in dPBS for 20 minutes at room temperature. […]
Cells were plated into gelatin-coated wells of plastic chamber slides (Nalge Nunc, Naperville, Ill.) (4×10^4 cells/cm^2) and incubated at 37° C., 5% CO2 for 2 h. […] The cells were washed with dPBS, fixed in 3% formaldehyde in dPBS for 20 min at 25° C. and analyzed using a BiORad MRC1024 laser scanning confocal microscope.

B1: RAP: 39 kDa chaperone protein that inhibits ligand binding to LDLR family members; recombinant human RAP (protein, UniProt P30533 35-357, looked up)
Alpha-2-macroglobulin …: YSREKNQPKPSPKRESGEEFRMEKLNQLWEKAQRLHLPPVRLAELHADLKIQERDELAWKKLKLDGLDEDGEKEARLIRNLNVILAKYGLDGKKDARQVTSNSLSGTQEDGLDDPRLEKLWHKAKTSGKFSGEELDKLWREFLHHKEKVHEYNVLLETLSRTEEIHENVISPSDLSDIKGSVLHSRHTELKEKLRSINQGLDRLRRVSHQGYSTEAEFEEPRVIDLWDLAQSANLTDKELEAFREELKHFEAKIEKHNHYQKQLEIAHEKLRHAESVGDGERVSRSREKHALLEGRTKELGYTVKKHLQDLSGRISRARHNEL
- DiI-HDL uptake in presence of competitor [1]: could be blocked; also recorded: completely blocked
- uptake of DiI-HDL (cell staining) [2]: completely blocked
